From PMC5186407 (Journal of molecular biology, 2016)
Blank lines part the entries; values can stand above or below the molecule they belong to.

What was measured:
Hsp70 NBD (Homo sapiens) = Hsp70 NBD (Homo sapiens) (UniProt P0DMV8); conditions: cited from earlier work
[1] = target: Hsp27-3D, triple phospho-mimetic mutant of Hsp27 (human) (UniProt P04792); assay: flow cytometry protein interaction assay
[2] = target: Hsp27c, truncated Hsp27 with only the core α-crystallin domain (human); assay: flow cytometry protein interaction assay
BAG3 Δ200–213 = BAG3 Δ200–213 (UniProt O95817); assay: ITC
[3] = target: BAG3 with the first IPV motif mutated to GPG (IPV1) (UniProt O95817); assay: ITC
BAG3 Δ87–101 = BAG3 Δ87–101 (UniProt O95817); assay: ITC
BAG3 Δ87–101 & Δ200–213 = BAG3 Δ87–101 & Δ200–213 (UniProt O95817 1-575, Δ87–101 | Δ200–213, Alexa Fluor label in the FCPIA experiments); assay: flow cytometry protein interaction assay

Hsp70 NBD (Homo sapiens), sequence (P0DMV8 2-386): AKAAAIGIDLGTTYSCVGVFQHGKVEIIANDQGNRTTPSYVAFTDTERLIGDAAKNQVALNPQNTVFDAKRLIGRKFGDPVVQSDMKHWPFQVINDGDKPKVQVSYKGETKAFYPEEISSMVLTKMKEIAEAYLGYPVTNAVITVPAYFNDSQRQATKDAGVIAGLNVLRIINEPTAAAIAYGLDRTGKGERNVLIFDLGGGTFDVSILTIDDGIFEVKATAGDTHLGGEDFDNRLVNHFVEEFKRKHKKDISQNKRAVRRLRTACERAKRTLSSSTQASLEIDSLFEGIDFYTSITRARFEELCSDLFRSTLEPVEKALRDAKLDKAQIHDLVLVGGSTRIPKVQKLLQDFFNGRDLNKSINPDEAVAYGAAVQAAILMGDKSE

Molecule: BAG3 (from UniProt O95817)
- Kd (Hsp70 NBD (Homo sapiens)): 10 nM

- Kd [1]: > 50 µM
- fold weakening of the affinity against BAG3 with both IPV motifs [2]: > 25 fold
Molecule: BAG3 Δ87–101 & Δ200–213 (from UniProt O95817 1-575) (natural protein)

- stoichiometry N (BAG3 Δ200–213): 1 Hsp27c:BAG3
- stoichiometry N [3]: 1 Hsp27c:BAG3
- stoichiometry N (BAG3 Δ87–101): 1 Hsp27c:BAG3
Molecule: Hsp27c, truncated Hsp27 with only the core α-crystallin domain (domain or fragment)

- Kd (BAG3 Δ87–101 & Δ200–213): > 50 µM
B1: Hsp20 (HSPB6) (natural protein, human, UniProt O14558 1-160, looked up)
chain: MEIPVPVQPSWLRRASAPLPGLSAPGRLFDQRFGEGLLEAELAALCPTTLAPYYLRAPSVALPVAQVPTDPGHFSVLLDVKHFSPEEIAVKVVGEHVEVHARHEERPDEHGFVAREFHRRYRLPPGVDPAAVTSALSPEGVLSIQAAPASAQAPPPAAAK
modifications: biotin (EZ-link NHS-Biotin) in the FCPIA experiments
